Results from patent publication US20240287138A1, “CYCLIC PEPTIDES FOR INHIBITING TNF RECEPTOR 1 ACTIVITY” (Merck Sharp & Dohme LLC, priority 2023, published 2024).
Numbered stars: 1 amine (or outer) side, 2 acyl side, 3 side chain; on linkers, the order of the positions; unused ones are H or OH. Bridge positions count the residues as written; N and C are the ends. Square brackets hold non-standard residues; d marks the D form. Ends that are not written are not given here. * marks the point of attachment. RbOHPhe4CONH2 = (2S,3R)-2-amino-3-(4-carbamoylphenyl)-3-hydroxypropanoic acid, NC(=O)c1ccc([C@@H](O[*:3])[C@H](N[*:1])C(=O)[*:2])cc1; bhcLeu = (1R,3S)-3-aminocyclopentane-1-carboxylic acid, O=C([C@@H]1CC[C@H](N[*:1])C1)[*:2]; Trp(βS-Me,7-OMe) = COc1cccc2c([C@H](C)[C@H](N)C(=O)O)c[nH]c12; dPro(trans-4-NMe2) = CN(C)[C@@H]1CN[C@@H](C(=O)O)C1; Trp(7-CN) = N#Cc1cccc2c(C[C@H](N)C(=O)O)c[nH]c12; Biotin = O=C1N[C@H]2[C@H](CS[C@H]2CCCCC(=O)*)N1; Phe(4-COOH) = N[C@@H](Cc1ccc(C(=O)O)cc1)C(=O)O; Trp(7-aza) = N[C@@H](Cc1c[nH]c2ncccc12)C(=O)O; Pip(4-aza) = O=C(O)[C@@H]1CNCCN1; hPhe = N[C@@H](CCc1ccccc1)C(=O)O; 4Pal = N[C@@H](Cc1ccncc1)C(=O)O; Cit = NC(=O)NCCC[C@H](N)C(=O)O; αMeS = C[C@](N)(CO)C(=O)O; NMeA = CN[C@@H](C)C(=O)O; Nle = CCCC[C@H](N)C(=O)O; AEA = NCCOCC(=O)O; Sar = CNCC(=O)O

Legend:
[1] = target: T1, TNFR1 on THP-1 Lucia NF-κB cells, P19438; experiment: cell-based or functional assay
T1 chain: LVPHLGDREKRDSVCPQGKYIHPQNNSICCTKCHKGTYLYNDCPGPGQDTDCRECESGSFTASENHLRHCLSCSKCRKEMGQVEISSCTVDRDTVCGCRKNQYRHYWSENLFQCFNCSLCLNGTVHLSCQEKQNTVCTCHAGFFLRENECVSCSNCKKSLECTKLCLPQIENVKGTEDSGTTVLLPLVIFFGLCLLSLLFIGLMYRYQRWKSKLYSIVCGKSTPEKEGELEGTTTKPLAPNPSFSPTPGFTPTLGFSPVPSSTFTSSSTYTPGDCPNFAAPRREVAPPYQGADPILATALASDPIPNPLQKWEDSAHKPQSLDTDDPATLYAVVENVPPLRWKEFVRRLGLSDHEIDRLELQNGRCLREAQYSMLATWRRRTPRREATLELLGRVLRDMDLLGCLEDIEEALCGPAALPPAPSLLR

[2] = target: T2, Recombinant human TNFR1 extracellular domain (ECD) protein, biotinylated via C-terminal avi-tag (human); experiment: SPR, peptide analyte on captured biotinylated TNFR1 ECD
T2 chain: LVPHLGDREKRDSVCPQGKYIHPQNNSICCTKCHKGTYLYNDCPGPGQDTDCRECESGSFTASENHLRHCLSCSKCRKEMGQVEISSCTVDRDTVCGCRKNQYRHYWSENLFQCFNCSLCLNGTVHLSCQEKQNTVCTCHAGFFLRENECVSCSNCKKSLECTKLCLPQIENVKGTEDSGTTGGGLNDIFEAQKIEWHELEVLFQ

[3] = target: T3, C'-terminally 6His-tagged human soluble TNFR1 (sTNFR1, residues 1-211) (human); experiment: TR-FRET displacement of biotinylated peptide SEQ ID NO. 1 from sTNFR1-6His
T3 chain: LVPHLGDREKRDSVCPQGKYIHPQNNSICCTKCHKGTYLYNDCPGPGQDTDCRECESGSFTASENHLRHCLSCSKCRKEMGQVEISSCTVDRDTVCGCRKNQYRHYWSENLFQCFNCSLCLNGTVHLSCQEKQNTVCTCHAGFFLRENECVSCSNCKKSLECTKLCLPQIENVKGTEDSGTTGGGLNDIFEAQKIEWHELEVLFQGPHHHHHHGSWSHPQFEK

[4] = target: T4, TNFR1 on THP-1 Lucia NF-kB reporter cells, P19438; experiment: cell-based or functional assay
T4 chain: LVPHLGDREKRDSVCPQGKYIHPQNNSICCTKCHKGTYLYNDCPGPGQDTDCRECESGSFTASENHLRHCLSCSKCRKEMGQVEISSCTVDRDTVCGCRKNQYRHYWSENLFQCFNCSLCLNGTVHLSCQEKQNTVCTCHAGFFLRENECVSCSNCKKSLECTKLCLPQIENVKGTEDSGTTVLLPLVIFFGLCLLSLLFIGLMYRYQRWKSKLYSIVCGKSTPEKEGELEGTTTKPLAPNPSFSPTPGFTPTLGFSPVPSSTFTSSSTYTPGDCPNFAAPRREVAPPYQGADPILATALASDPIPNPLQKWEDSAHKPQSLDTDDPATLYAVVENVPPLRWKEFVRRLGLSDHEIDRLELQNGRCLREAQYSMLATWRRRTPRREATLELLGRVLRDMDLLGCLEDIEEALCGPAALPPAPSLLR

[5] = target: T5, TNFR1 on THP-1 Lucia NF-κB reporter cells, P19438; experiment: cell-based or functional assay
T5 chain: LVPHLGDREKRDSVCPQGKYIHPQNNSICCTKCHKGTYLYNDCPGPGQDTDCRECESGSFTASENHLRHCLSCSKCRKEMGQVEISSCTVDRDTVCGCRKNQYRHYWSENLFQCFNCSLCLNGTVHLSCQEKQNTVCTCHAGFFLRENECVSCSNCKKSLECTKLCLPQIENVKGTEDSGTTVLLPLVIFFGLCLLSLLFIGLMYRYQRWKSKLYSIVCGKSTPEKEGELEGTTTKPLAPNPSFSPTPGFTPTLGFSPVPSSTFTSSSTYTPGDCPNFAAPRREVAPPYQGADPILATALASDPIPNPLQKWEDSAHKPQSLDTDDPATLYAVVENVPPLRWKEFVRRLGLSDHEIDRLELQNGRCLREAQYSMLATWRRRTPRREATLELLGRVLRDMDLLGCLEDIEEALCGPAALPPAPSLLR

[6] = target: T6, recombinant human TNFR1 extracellular domain (ECD), biotinylated via C-terminal Avi-tag, construct SEQ. ID NO. P2 (human); experiment: SPR (Cytiva 8K/8K+), peptide analyte over captured biotinylated human TNFR1 ECD
T6 chain: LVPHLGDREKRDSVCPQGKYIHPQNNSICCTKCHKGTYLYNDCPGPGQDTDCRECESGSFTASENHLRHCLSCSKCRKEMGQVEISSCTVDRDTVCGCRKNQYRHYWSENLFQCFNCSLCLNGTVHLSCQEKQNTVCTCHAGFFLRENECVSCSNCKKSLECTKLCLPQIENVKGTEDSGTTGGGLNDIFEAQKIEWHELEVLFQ

[7] = target: T7, human soluble TNFR1, C-terminally 6His-tagged (sTNFR1-6His, residues 1-211), SEQ. ID NO. P1 (human); experiment: TR-FRET displacement of biotinylated peptide SEQ ID NO. 1 from sTNFR1-6His; 4-parameter fit
T7 chain: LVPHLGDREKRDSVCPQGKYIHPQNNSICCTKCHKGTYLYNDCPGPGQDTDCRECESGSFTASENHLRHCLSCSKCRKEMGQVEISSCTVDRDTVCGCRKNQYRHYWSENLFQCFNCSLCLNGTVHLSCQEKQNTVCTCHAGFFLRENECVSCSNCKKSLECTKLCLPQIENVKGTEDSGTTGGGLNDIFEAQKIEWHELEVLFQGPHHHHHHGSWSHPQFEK

[8] = target: human soluble TNFR1, C-terminally 6His-tagged (sTNFR1-6His, residues 1-211), SEQ. ID NO. P1 (human); experiment: TR-FRET displacement of biotinylated peptide SEQ ID NO. 1 from sTNFR1-6His; Morrison-based 5-parameter fit

B1: SEQ ID NO. 260 (peptide)
peptide: {CH2CO}-[hPhe]YSW[NMeA]N[4Pal]W[αMeS][Phe(4-COOH)]R[Sar]WC-NH2
modifications: thioether N-14
SMILES: C[C@H]1C(=O)N[C@@H](CC(N)=O)C(=O)N[C@@H](Cc2ccncc2)C(=O)N[C@@H](Cc2c[nH]c3ccccc23)C(=O)N[C@@](C)(CO)C(=O)N[C@@H](Cc2ccc(C(=O)O)cc2)C(=O)N[C@@H](CCCNC(=N)N)C(=O)N(C)CC(=O)N[C@@H](Cc2c[nH]c3ccccc23)C(=O)N[C@H](C(N)=O)CSCC(=O)N[C@@H](CCc2ccccc2)C(=O)N[C@@H](Cc2ccc(O)cc2)C(=O)N[C@@H](CO)C(=O)N[C@@H](Cc2c[nH]c3ccccc23)C(=O)N1C
With B1 the THP-1 IC50 [1] was 50.1 nM, the Kd [2] was 6 nM and the IC50 [3] was 10.2 nM.

{CH2CO}-FYSW[Sar]NYWSYY[Sar]WCG[AEA]K(Biotin) (thioether N-14) [SEQ ID NO. 1] was tested, and the THP-1 IC50 [4] was 227 nM.

Binder FYSWGNYWSYYGWCGEE (modifications not checked) [SEQ ID NO. 289 (Example No. 289) macrocyclic peptide] has a THP-1 IC50 [5] of 36.4 nM, a Kd [6] of 7.43 nM and an IC50 [7] of 9.87 nM.

B2: SEQ ID NO. 242 (peptide)
peptide: {CH2CO}-KYSW[dP]Q[4Pal]W[αMeS][Phe(4-COOH)]Y[Sar]WC-NH2
modifications: thioether N-14
SMILES: CN1CC(=O)N[C@@H](Cc2c[nH]c3ccccc23)C(=O)N[C@H](C(N)=O)CSCC(=O)N[C@@H](CCCCN)C(=O)N[C@@H](Cc2ccc(O)cc2)C(=O)N[C@@H](CO)C(=O)N[C@@H](Cc2c[nH]c3ccccc23)C(=O)N2CCC[C@@H]2C(=O)N[C@@H](CCC(N)=O)C(=O)N[C@@H](Cc2ccncc2)C(=O)N[C@@H](Cc2c[nH]c3ccccc23)C(=O)N[C@@](C)(CO)C(=O)N[C@@H](Cc2ccc(C(=O)O)cc2)C(=O)N[C@@H](Cc2ccc(O)cc2)C1=O
B2 was tested, and the THP-1 IC50 [1] was 3 nM, the Kd [2] was 0.3 nM and the IC50 [3] was 1.21 nM.

B3: SEQ ID NO. 287 (Example No. 287) macrocyclic peptide (peptide)
peptide: cyclo([bhcLeu][Nle][4Pal][Pip(4-aza)][Trp(7-aza)][dPro(trans-4-NMe2)]N[Phe(4-COOH)][Trp(7-CN)][αMeS][Phe(4-COOH)][RbOHPhe4CONH2][Sar][Trp(βS-Me,7-OMe)])
SMILES: CCCC[C@@H]1NC(=O)[C@@H]2CC[C@@H](C2)NC(=O)[C@H]([C@@H](C)c2c[nH]c3c(OC)cccc23)NC(=O)CN(C)C(=O)[C@H]([C@H](O)c2ccc(C(N)=O)cc2)NC(=O)[C@H](Cc2ccc(C(=O)O)cc2)NC(=O)[C@](C)(CO)NC(=O)[C@H](Cc2c[nH]c3c(C#N)cccc23)NC(=O)[C@H](Cc2ccc(C(=O)O)cc2)NC(=O)[C@H](CC(N)=O)NC(=O)[C@H]2C[C@H](N(C)C)CN2C(=O)[C@H](Cc2c[nH]c3ncccc23)NC(=O)[C@@H]2CNCCN2C(=O)[C@H](Cc2ccncc2)NC1=O
B3 was tested, and the Kd^app [8] was 0.22 nM.

B4: SEQ ID NO. 256 (peptide)
peptide: {CH2CO}-KYSW[dP][Cit][4Pal]W[αMeS][Phe(4-COOH)]Y[Sar]WC-NH2
modifications: thioether N-14
SMILES: CN1CC(=O)N[C@@H](Cc2c[nH]c3ccccc23)C(=O)N[C@H](C(N)=O)CSCC(=O)N[C@@H](CCCCN)C(=O)N[C@@H](Cc2ccc(O)cc2)C(=O)N[C@@H](CO)C(=O)N[C@@H](Cc2c[nH]c3ccccc23)C(=O)N2CCC[C@@H]2C(=O)N[C@@H](CCCNC(N)=O)C(=O)N[C@@H](Cc2ccncc2)C(=O)N[C@@H](Cc2c[nH]c3ccccc23)C(=O)N[C@@](C)(CO)C(=O)N[C@@H](Cc2ccc(C(=O)O)cc2)C(=O)N[C@@H](Cc2ccc(O)cc2)C1=O
B4 gave a THP-1 IC50 [1] of 6.1 nM, a Kd [2] of 1.4 nM and an IC50 [3] of 1.84 nM.
